These results are taken from US20120014954A1 (ABRAXIS BIOSCIENCE, published 2012).

T1: Secreted Protein, Acidic, Rich in Cysteines (SPARC) (UniProt P09486 18-303)
T1 construct: also called osteonectin; SPARC protein
T1 sequence (looked up): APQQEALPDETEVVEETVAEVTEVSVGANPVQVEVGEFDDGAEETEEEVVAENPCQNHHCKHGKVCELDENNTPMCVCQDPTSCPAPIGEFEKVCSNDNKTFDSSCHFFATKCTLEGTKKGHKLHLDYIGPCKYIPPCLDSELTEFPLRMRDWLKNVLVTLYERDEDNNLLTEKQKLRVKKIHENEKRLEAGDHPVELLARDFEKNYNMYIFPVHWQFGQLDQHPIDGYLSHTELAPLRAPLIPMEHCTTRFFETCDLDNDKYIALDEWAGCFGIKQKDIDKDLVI

T2: HTI SPARC (purified platelet SPARC obtained from HTI) (UniProt P09486 18-303)
T2 sequence (looked up): T1 sequence (looked up)

T3: Abx SPARC (SPARC from engineered HEK293 cells produced by Abraxis) (UniProt P09486 18-303, limits assumed)
T3 sequence (looked up): T1 sequence (looked up)

B1: PD 21 (peptide)
peptide: VTPLLKFRALSS
notes: 12-mer from the Ph.D.-12 phage library; The peptide was cloned into pFUSE-hIgG1-Fc2 and expressed as the PD 21-Fc fusion; also called peptide 21; PD 21-Fc
B2: PD 15 (peptide)
peptide: YTRLHHWIPPQR
notes: 12-mer from the Ph.D.-12 phage library; The peptide was cloned into pFUSE-hIgG1-Fc2 and expressed as the PD 15-Fc fusion; also called peptide 15; PD 15-Fc
B3: ScFv 2-1 (scFv)
scFv: EVQLLESGGGLVQPGGSLRLSCAASGFTFSSYAMSWVRQAPGKGLEWVSMITPLGSTTAYADSVKGRFTISRDNSKNTLYLQMNSLRAEDTAVYYCAKRAGVFDYWGQGTLVTVSSGGGGSGGGGSGGGGSTDIQMTQSPSSLSASVGDRVTITCRASQSISSYLNWYQQKPGKAPKLLIYRASTLQSGVPSRFSGSGSGTDFTLTISSLQPEDFATYYCQQNDSFPTTFGQGTKVEIKR
notes: It was purified from bacteria on a nickel column
B4: ScFv 3-2 (scFv)
scFv: EIVMTQSPGTLSLSPGDRATLSCRASQSVSGYLAWYQQKPGQAPRLLIYDASNRATGIPARFSGSGSGTDFTLTISSLQAEDVAVYYCQQYYSTLPTFGQGTKLEIKRSGGSTITSYNVYYTKLSSSGTQVQLVQSGGGVVQPGRPLKLSCAASGFTFSSYAMHWVRQAPGKGLEWVAVISYDGSNKYYADSVKGRFTISRDNSKNTLYLQMNSLRAEDTAVYYCARDLSWNDAFDIWGQGTMVTVSSAS

The first experiment deals with T1, Secreted Protein, Acidic, Rich in …. The experiment in a line: concentration-dependent binding ELISA.
The molecule B1 had a Kd of 100 nM.

B2 showed a dissociation constant (Kd) of 41 nM.

For another experiment the target is unchanged. Briefly: concentration-dependent ELISA on SPARC.
As to B1, the “EC50 (read off the curve)” value was around 3 µg/mL and the Kd is 1 nM.

For B2, the concentration for a half-maximal effect (EC50 (read off the curve)) is around 2 µg/mL and the dissociation constant (Kd) is 410 nM.

For another experiment the target is unchanged. Briefly: phage ELISA on SPARC-coated wells; OD column 1 of 3. From the text: (§1) Accordingly, a commercial peptide phage display library (12-mer peptides in M13) was screened for peptides which bind to SPARC. The target, SPARC is an acidic glycoprotein with a PI of 4.6. By immobilization on 96-wells plates with pH 9.6 coating buffer, Ph.D.-12 peptide library was screened four rounds to select peptide binders using phage display technology. Specifically, bound phages were eluted with an acidic eluting solution in the 1st round of screening. Then the screening stringency was enhanced gradually by decreasing the target protein concentration and increasing the percentage of Tween-20 in washing buffer. At the same time, competitive elution with excess target was adopted to improve the screening specificity. Finally, after four rounds of screening, ssDNA of selected clones were subjected to DNA sequencing. At the same time, the binding of the positive phages to the target protein was validated using phage ELISA.
Turning to KAYLDSIPITPR (also called clone 60), the OD stood at 0.619.

Take IDKPLHVVLALG (also called clone 184): the OD was 0.634.

On to LSTHKLFHSHSQ (also called clone 180), for which the OD came to 1.21.

Consider IPFATAAYNAPG (also called clone 191), for which the OD was found to be 0.564.

The molecule TSYLNSGMIPAR (also called clone 63) returned an OD of 0.688.

As to VPATRVSPTPYA (also called clone 133), the OD is 0.545.

B1 showed an OD of 0.45.

Regarding SAHTLAAWFAKP (also called clone 204), the OD was found to be 0.8.

Regarding QILGYPTNLGPF (also called clone 135), the OD was determined as 0.626.

The molecule HYFSRTQTLSTL (also called clone 194) registered an OD of 0.494.

In turn, TQWHDDSTFYWL (also called clone 186) returned an OD of 0.903.

VSHPPRFPGWPQ (also called clone 59): the OD turned out to be 0.737.

In turn, VGNMPFVHPHQW (also called clone 192) gave an OD of 0.567.

For TTHSELSGYVEL (also called clone 188), the OD was 0.716.

The molecule B2 yielded an OD of 0.597.

The molecule AAAPLNLSMTFP (also called clone 182) showed an OD of 0.756.

For the next experiment the target is unchanged. Briefly: phage ELISA on SPARC-coated wells; OD column 2 of 3.
Text: as §1
As to KAYLDSIPITPR (also called clone 60), the OD was 0.611.

Regarding IDKPLHVVLALG (also called clone 184), the OD was determined as 0.635.

Turning to LSTHKLFHSHSQ (also called clone 180), the OD came out at 1.28.

The molecule IPFATAAYNAPG (also called clone 191) displayed an OD of 0.567.

With TSYLNSGMIPAR (also called clone 63), the OD is 0.664.

VPATRVSPTPYA (also called clone 133) showed an OD of 0.554.

As to B1, the OD is 0.443.

SAHTLAAWFAKP (also called clone 204) gave an OD of 0.748.

In turn, QILGYPTNLGPF (also called clone 135) displayed an OD of 0.652.

With HYFSRTQTLSTL (also called clone 194), the OD came to 0.514.

As to TQWHDDSTFYWL (also called clone 186), the OD amounted to 0.985.

The molecule VSHPPRFPGWPQ (also called clone 59) gave an OD of 0.628.

For VGNMPFVHPHQW (also called clone 192), the OD turned out to be 0.5.

TTHSELSGYVEL (also called clone 188) returned an OD of 0.682.

In turn, B2 registered an OD of 0.516.

On to AAAPLNLSMTFP (also called clone 182), for which the OD was 0.782.

The next experiment shares this target. Briefly: phage ELISA on SPARC-coated wells; OD column 3 of 3.
Text: as §1
KAYLDSIPITPR (also called clone 60) had an OD of 0.605.

Molecule IDKPLHVVLALG (also called clone 184) came in with an OD of 0.554.

For LSTHKLFHSHSQ (also called clone 180), the OD came to 1.14.

On to IPFATAAYNAPG (also called clone 191), for which the OD amounted to 0.58.

TSYLNSGMIPAR (also called clone 63): the OD is 0.602.

VPATRVSPTPYA (also called clone 133) gave an OD of 0.5.

Consider B1, for which the OD turned out to be 0.438.

Turning to SAHTLAAWFAKP (also called clone 204), the OD came out at 0.779.

On to QILGYPTNLGPF (also called clone 135), for which the OD turned out to be 0.66.

For HYFSRTQTLSTL (also called clone 194), the OD was found to be 0.521.

Molecule TQWHDDSTFYWL (also called clone 186) showed an OD of 0.882.

VSHPPRFPGWPQ (also called clone 59) yielded an OD of 0.733.

Regarding VGNMPFVHPHQW (also called clone 192), the OD is 0.539.

For the molecule TTHSELSGYVEL (also called clone 188), the OD was 0.685.

Regarding B2, the OD is 0.576.

The molecule AAAPLNLSMTFP (also called clone 182) displayed an OD of 0.643.

Another experiment addresses T2, HTI SPARC (purified platelet SPARC …). Briefly: Biacore, SPARC immobilised on the chip; S = soluble scFv.
As for B3, binding was put at a Kd of 330 nM.

Another experiment has as its target T3, Abx SPARC (SPARC from engineered HEK293 …). The description is as above.
B3 came in with a Kd of 370 nM. That is a sub-micromolar value.

A further experiment concerns the target T2, HTI SPARC (purified platelet SPARC …). Briefly: Biacore, SPARC immobilised on the chip; R = refolded scFv.
Molecule B4 showed a Kd of 78000 nM.

A further experiment addresses T3, Abx SPARC (SPARC from engineered HEK293 …). The description is as above.
Take B4: the Kd came to 1300 nM.

For the next experiment, the target named is Secreted Protein, Acidic, Rich in Cysteines (SPARC) (UniProt P09486). The experiment in a line: phage display panning on immobilised SPARC; times isolated among 134 sequenced clones.
Molecule HLPKSLS (peptide) showed a Count of 1.

In the next experiment the target is T1, Secreted Protein, Acidic, Rich in …. The experiment is described as above.
Text: as §1
KAYLDSIPITPR (also called clone 60) came in with a Count of 1.

As for IDKPLHVVLALG (also called clone 184), the Count came out at 2.

Consider LSTHKLFHSHSQ (also called clone 180), for which the Count amounted to 1.

The molecule IPFATAAYNAPG (also called clone 191) returned a Count of 1.

Turning to TSYLNSGMIPAR (also called clone 63), the Count is 1.

VPATRVSPTPYA (also called clone 133) had a Count of 1.

In turn, B1 displayed a Count of 2.

SAHTLAAWFAKP (also called clone 204) showed a Count of 1.

Molecule QILGYPTNLGPF (also called clone 135) yielded a Count of 1.

Turning to HYFSRTQTLSTL (also called clone 194), the Count amounted to 1.

The molecule TQWHDDSTFYWL (also called clone 186) came in with a Count of 2.

VSHPPRFPGWPQ (also called clone 59) returned a Count of 1.

VGNMPFVHPHQW (also called clone 192) yielded a Count of 1.

The molecule TTHSELSGYVEL (also called clone 188) yielded a Count of 1.

Molecule B2 returned a Count of 1.

AAAPLNLSMTFP (also called clone 182): the Count was 1.

Take AHPWRYTEPWSW (also called clone 101; clone 154): the Count is 6.
